Laboratory results taken from the supplement of paper PMC9170038.

Tested on: MS2 coat protein
Assay: apparent KD of MS2 coat protein; designed switch direction (-1 OFF switch, 1 ON switch): 1; higher = weaker reporter binding
How it was run: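 RNA switches sharing common flanks were transcribed by stalled E. coli RNA polymerase on Illumina chips. A doubling series of SNAP-549-labelled MS2 coat protein, from 0.7 or 1.5 nM to 3 µM, was applied in Tris-HCl pH 7.5 buffer with KCl, MgCl2, BSA, DTT, tRNA and Tween-20. Each step lasted 0.8–1.5 h at the bottom of the series and 10–20 min at the top. Normalised cluster fluorescence was curve-fitted, giving apparent KD as the per-design median over clusters.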

[1] = input ligand: microRNA oligo, concentration not stated
[2] = Eterna round: R95, input ligand: FMN 200 uM
[3] = Eterna round: R95, input ligand: microRNA oligo, concentration not stated
[4] = Eterna round: R95, input ligand: none

CAGUACAUUCAAGGAUAUUCUCCAUGGAAAGUAGAAGAAGGUGAAACAUGAGGAUCACCCAUGUAGAAAGGAACAUUCGUACUG [Eternabot solution 34] (Eterna round: R96, puzzle: Same State NG 1)
apparent KD of MS2 coat protein (input ligand: FMN 200 uM): 181 nM
apparent KD of MS2 coat protein [1]: 147 nM
apparent KD of MS2 coat protein (input ligand: none): 310 nM

GAAUAACAUGAGGAUCACCCAUGUAAUAUAAUGGGAGGAUAUCUGAAUUAAUUAUAUUAAGGAGAAGGCCUAUAUG [Mat - Same State 1 - Mod of Eli - D54] (puzzle: Same State 1)
apparent KD of MS2 coat protein [2]: 51.6 nM
apparent KD of MS2 coat protein [3]: 204 nM
apparent KD of MS2 coat protein [4]: 260 nM

GGAUCGUCGGCAGGAUAUGAGCAAGUGCAUCGAUCAGAAGGGUCGAGUCCUAGAAGGUAAAGCACAUGAGGAUCACCCAUGUAG [Eternabot solution 39] (Eterna round: R96, puzzle: Same State NG 1)
apparent KD of MS2 coat protein (input ligand: FMN 200 uM): 40.7 nM
apparent KD of MS2 coat protein [1]: 63.7 nM
apparent KD of MS2 coat protein (input ligand: none): 96.3 nM

GAAAGCAUGGGAGGAUAUAGCCUCUAUGAAAGGCUAGAAGGCCCUGGCCACAUGAGGAUCACCCAUGUGAAAUAAAUAGAAGAA [Raarceza] (Eterna round: R96, puzzle: Same State NG 1)
apparent KD of MS2 coat protein (input ligand: FMN 200 uM): 28.9 nM
apparent KD of MS2 coat protein [1]: 96.9 nM
apparent KD of MS2 coat protein (input ligand: none): 218 nM

GUUACAUGAGGAUCACCCAUGUAUGUGUGGGAGUAAGUGUCUUAGGAUAUCUAUUAUUUGAAUUAAGAGAAGGAAGAUUGUUGU [JMF's solution 21] (Eterna round: R96, puzzle: Same State NG 3)
apparent KD of MS2 coat protein (input ligand: FMN 200 uM): 128 nM
apparent KD of MS2 coat protein [1]: 69.8 nM
apparent KD of MS2 coat protein (input ligand: none): 103 nM

AAUAUUAAUGCAGGAUAUGAUUAACAUGAGGAUCACCCAUGUGGUGUUGUGAGUAAGGAGAGUGAUCAGAAGGGCAUUUUUUUU [JMF's solution 36] (Eterna round: R96, puzzle: Same State NG 2)
apparent KD of MS2 coat protein (input ligand: FMN 200 uM): 648 nM
apparent KD of MS2 coat protein [1]: 349 nM
apparent KD of MS2 coat protein (input ligand: none): 529 nM

GGUCCAGCCUGAGCUGGACAAAAGCAUGUACAUGAGGAUCACCCAUGUUCAUGUACAAGCUUUUUGCUCGUCUUAAG [salish99_208a_r3_037] (puzzle: Sensor for hsa-mir-208a)
apparent KD of MS2 coat protein [2]: 719 nM
apparent KD of MS2 coat protein [3]: 18 nM
apparent KD of MS2 coat protein [4]: 740 nM

UUGUUUCGUCAUUAACAUGAGGAUCACCCAUGUAUUGACCCAGAGGAUAUGCAUGUUUGAUUGUAGCAGAAGGCUGAUUGUUGU [JR_SSNG3_Sub032] (Eterna round: R96, puzzle: Same State NG 3)
apparent KD of MS2 coat protein (input ligand: FMN 200 uM): 13.7 nM
apparent KD of MS2 coat protein [1]: 27 nM
apparent KD of MS2 coat protein (input ligand: none): 26.3 nM

CGUAGGUAGCUGGAGGAUAUUCGAGUGGUAACAUGAGGAUCACCCAUGUGGAGUUAGGUACAUGAGGAGAAGGCUAGCUGCCUGC [JL-ss2-3.18 JL mod] (puzzle: Same State 2)
apparent KD of MS2 coat protein [2]: 10.4 nM
apparent KD of MS2 coat protein [3]: 23 nM
apparent KD of MS2 coat protein [4]: 27.4 nM

UCGGGCGUACUUGCUGACAUGAGGAUCACCCAUGUCCUUGGACAGGAUAUGGUUCCGUUUCGGUUCCAGAAGGUCCUGGCUGCU [salish99_SSNG3_r04_320] (Eterna round: R96, puzzle: Same State NG 3)
apparent KD of MS2 coat protein (input ligand: FMN 200 uM): 31.8 nM
apparent KD of MS2 coat protein [1]: 25.5 nM
apparent KD of MS2 coat protein (input ligand: none): 40.9 nM

GUAGCAUACCGAGGAUAUUCAUAUAAUAAAUAACAUGAGGAUCACCCAUGUAGGCGAAAGCCUUGGGAGAAGGCGGAAUGCUAC [Xeonanis - 20 Mod57] (Eterna round: R96, puzzle: Same State NG 2)
apparent KD of MS2 coat protein (input ligand: FMN 200 uM): 13.5 nM
apparent KD of MS2 coat protein [1]: 108 nM
apparent KD of MS2 coat protein (input ligand: none): 112 nM

AGCCGAGACUGAGGAUAUUUGUAUCUACAUGAGGAUCACCCAUGUAGCAACACGUGGUAGUGAUCGAAGAAGGCAGCUCGGCGC [MOD2 of Omei's SS(NG)2 Cv2] (Eterna round: R96, puzzle: Same State NG 2)
apparent KD of MS2 coat protein (input ligand: FMN 200 uM): 54 nM
apparent KD of MS2 coat protein [1]: 282 nM
apparent KD of MS2 coat protein (input ligand: none): 291 nM

GUGCUCGUGUAAGGAUAUGCUUCCGUUUCGGCUGCAGAAGGUACUAUAAUACAUGAGGAUCACCCAUGUCUCUUUUGUUUGGUG [salish99_SSNG1_r04_908] (Eterna round: R96, puzzle: Same State NG 1)
apparent KD of MS2 coat protein (input ligand: FMN 200 uM): 86.1 nM
apparent KD of MS2 coat protein [1]: 58.6 nM
apparent KD of MS2 coat protein (input ligand: none): 76.5 nM

UACAAUCUAUCUGAGGAUAUCAUGAAAUAAACAUGAGGAUCACCCAUGUGCAGGAAAACUGCAUAUGAGAAGGCAGAUAGAUUGU [salish99_ss2_r3_059] (puzzle: Same State 2)
apparent KD of MS2 coat protein [2]: 41.1 nM
apparent KD of MS2 coat protein [3]: 662 nM
apparent KD of MS2 coat protein [4]: 1640 nM

AGGACGAGCACAGGAUAUCCGUGGAACAGACACGGAGAAGGGUGAAGUCAUGGAAAGAAAAGACAUGAGGAUCACCCAUGUAAA [Eszaonin] (Eterna round: R96, puzzle: Same State NG 1)
apparent KD of MS2 coat protein (input ligand: FMN 200 uM): 132 nM
apparent KD of MS2 coat protein [1]: 61.3 nM
apparent KD of MS2 coat protein (input ligand: none): 310 nM

AUUAAACAUGAGGAUCACCCAUGUCAACAAAGUCGAGGAUAUGGGCAAAUUAUAUAAUAACCAGAAGGCGAAUAAU [salish99_ss1_r3_083] (puzzle: Same State 1)
apparent KD of MS2 coat protein [2]: 15.2 nM
apparent KD of MS2 coat protein [3]: 18.9 nM
apparent KD of MS2 coat protein [4]: 14.2 nM

CCGAUGUAUGGAGGAUAUGGAGCCUUAUUGGCUCCAGAAGGCUAAUAACAUGAGGAUCACCCAUGUCGGCGGUCUAAUGACCGA [Eli NG1ss - 55] (Eterna round: R96, puzzle: Same State NG 1)
apparent KD of MS2 coat protein (input ligand: FMN 200 uM): 48.2 nM
apparent KD of MS2 coat protein [1]: 49.3 nM
apparent KD of MS2 coat protein (input ligand: none): 112 nM

GAGAGAUGAUUAGGAUAUACGGUGAUAAUGAUAGUAGAAGGAAUUGACAUGAGGAUCACCCAUGUGGGAAUAAUCCAGAGAGAG [Parity 22 - Jieux - Same State NG 1] (Eterna round: R96, puzzle: Same State NG 1)
apparent KD of MS2 coat protein (input ligand: FMN 200 uM): 100 nM
apparent KD of MS2 coat protein [1]: 127 nM
apparent KD of MS2 coat protein (input ligand: none): 162 nM

GUGGUCAGACAUGAGGAUCACCCAUGUGGAAUAAAUAAGGGAAAGGAUAUAAAAUAUAGGAUAUAUUAGAAGGUUCGGUUGGUG (Eterna round: R96, puzzle: Same State NG 3)
apparent KD of MS2 coat protein (input ligand: FMN 200 uM): 131 nM
apparent KD of MS2 coat protein [1]: 83.9 nM
apparent KD of MS2 coat protein (input ligand: none): 89.6 nM

UGUUGUAUUACAGGAUAUCUAUUGUUUUUUUUUAGAGAAGGGUAUUCACAUGAGGAUCACCCAUGUAUAUACGAGGAAGUUGUG [JMF's solution 79] (Eterna round: R96, puzzle: Same State NG 1)
apparent KD of MS2 coat protein [1]: 43.2 nM

AUAAAACAUGAGGAUCACCCAUGUCAACAAAAUCGAGGAUAUGGACAGACUUCGGUCUGUCCAGAAGGCGAAUAAU [salish99_ss1_r3_100] (puzzle: Same State 1)
apparent KD of MS2 coat protein [3]: 13.8 nM

AAAGUACAUGAGGAUCACCCAUGUAAAAGACUCACAGGAUAUGCUUCUUGUGUACAAGCUGCAGAAGGGUGAAAAG [Oraes] (puzzle: Same State 1)
apparent KD of MS2 coat protein [2]: 30.8 nM
apparent KD of MS2 coat protein [3]: 55.9 nM
apparent KD of MS2 coat protein [4]: 107 nM

UAGGAUCAACGAGGAUAUAAUAGGUUCAAUUUUUUAUAUUGUUUACAUGAGGAUCACCCAUGUUAUUAGAAGGCGUAUGGGAUU [JR_SSNG2_Sub084] (Eterna round: R96, puzzle: Same State NG 2)
apparent KD of MS2 coat protein [1]: 39.9 nM

CGUCCGGCCUGUGCUGGCCGGUGGCGUGUACAUGAGGAUCACCCAUGUUCUUGUGCUGGCUGUUUGCUCGUCUUGUG [salish99_mir208a_r3_025] (puzzle: Sensor for hsa-mir-208a)
apparent KD of MS2 coat protein [2]: 44.8 nM
apparent KD of MS2 coat protein [3]: 23 nM
apparent KD of MS2 coat protein [4]: 58.2 nM

AAAGCACAUGAGGAUCACCCAUGUGGAAAUAACACAGGAUAUCUGGCCUAAGCUUAGGCGAGAGAAGGGUGACCUA [Beintivequ] (puzzle: Same State 1)
apparent KD of MS2 coat protein [3]: 65.5 nM

GUUAGGAAUCUAGCAAACAUGAGGAUCACCCAUGUUAGUGGGAAGGAUAUGGUACAGAAACUGUACCAGAAGGUCUUAUUAAUU [Omei SS(NG) 3 AV2] (Eterna round: R96, puzzle: Same State NG 3)
apparent KD of MS2 coat protein (input ligand: FMN 200 uM): 58.3 nM
apparent KD of MS2 coat protein [1]: 39.1 nM
apparent KD of MS2 coat protein (input ligand: none): 55.7 nM

AAAAUGGUAUGUUACAUGAGGAUCACCCAUGUACGGUCAUCUGAGGAUAUGGUGAUGUAGAAGAAUCAGAAGGCAGACAUUUAA [AK SSNG3-V2-26] (Eterna round: R96, puzzle: Same State NG 3)
apparent KD of MS2 coat protein (input ligand: FMN 200 uM): 27.9 nM
apparent KD of MS2 coat protein [1]: 19.8 nM
apparent KD of MS2 coat protein (input ligand: none): 32.3 nM

UGUUGUAUUACAGGAUAUCUAGUUUUUUUAUUUAGAGAAGGGUAUUCACAUGAGGAUCACCCAUGUAUAUACGAGGAAGUUGUG [JMF's solution 33] (Eterna round: R96, puzzle: Same State NG 1)
apparent KD of MS2 coat protein [1]: 36.4 nM

UUCUCCUUUUUUUACAUGAGGAUCACCCAUGUUUACCCUACGUAGGAUAUCGAUGAGUGUUUGUACGAGAAGGACGUAGUAAGU [JR_SSND3_Sub058] (Eterna round: R96, puzzle: Same State NG 3)
apparent KD of MS2 coat protein (input ligand: FMN 200 uM): 37.4 nM
apparent KD of MS2 coat protein [1]: 106 nM
apparent KD of MS2 coat protein (input ligand: none): 137 nM

CCAACAUACAAUUUAAGAUCACAUGAGGAUCACCCAUGUAUGCAGGAUAUCAGCUCGAUUAGAGCUGAGAAGGGCAAUUUAAUU [SSNG3/1-A2] (Eterna round: R96, puzzle: Same State NG 3)
apparent KD of MS2 coat protein (input ligand: FMN 200 uM): 89.6 nM
apparent KD of MS2 coat protein [1]: 151 nM
apparent KD of MS2 coat protein (input ligand: none): 216 nM

GGAGCCGGCACUGAGGAUAUUCAUAGUGUAACAUGAGGAUCACCCAUGUAGGCCCUGAGGCCUUGGGAGAAGGCAGGUCGGCUCG [JL-ss2-3.04 ViennaUCT mod] (puzzle: Same State 2)
apparent KD of MS2 coat protein [2]: 31.8 nM
apparent KD of MS2 coat protein [3]: 239 nM
apparent KD of MS2 coat protein [4]: 445 nM

GGAGCCGGUACUGAGGAUAUUCAUCUUAAAACAUGAGGAUCACCCAUGUAGGCCAGAAGGCCUUGGGAGAAGGCAGAUCGGCUCC [Biseusra - 7] (puzzle: Same State 2)
apparent KD of MS2 coat protein [2]: 20 nM
apparent KD of MS2 coat protein [3]: 52.2 nM
apparent KD of MS2 coat protein [4]: 66 nM
